42 variants from the Human Domainome abundance scans (Beltran et al. 2025) can be followed below.

± gives the uncertainty stated by the source.

The labels stand for the following.
B1: Calcium-binding protein 2, residues 155 to 219; numbered along this chain, Q9NPB3 (parent)
chain: RELRDAFREFDTNGDGRISVGELRAALKALLGERLSQREVDEILQDVDLNGDGLVDFEEFVRMMS

The variants in the data set derive from B1. Description: abundance fitness (aPCA) (normalised: wild type 0, dead -1); higher = more abundant; growth selection in yeast, the domain comes from the species named. The following applies: Homo sapiens.
For the variant RELRDCFREFDTNGDGRISVGELRAALKALLGERLSQREVDEILQDVDLNGDGLVDFEEFVRMMS [A6C], the abundance fitness was 0.085 ± 0.1. In the case of RELTDAFREFDTNGDGRISVGELRAALKALLGERLSQREVDEILQDVDLNGDGLVDFEEFVRMMS [R4T] it was -0.138 ± 0.097. Consider RELMDAFREFDTNGDGRISVGELRAALKALLGERLSQREVDEILQDVDLNGDGLVDFEEFVRMMS [R4M], for which the abundance fitness is -0.144 ± 0.095. In the case of RELFDAFREFDTNGDGRISVGELRAALKALLGERLSQREVDEILQDVDLNGDGLVDFEEFVRMMS [R4F] it was -0.321 ± 0.16; in that of RELYDAFREFDTNGDGRISVGELRAALKALLGERLSQREVDEILQDVDLNGDGLVDFEEFVRMMS [R4Y], -0.544 ± 0.36; in that of RELKDAFREFDTNGDGRISVGELRAALKALLGERLSQREVDEILQDVDLNGDGLVDFEEFVRMMS [R4K], 0.064 ± 0.077. Consider RELQDAFREFDTNGDGRISVGELRAALKALLGERLSQREVDEILQDVDLNGDGLVDFEEFVRMMS [R4Q], for which the abundance fitness is -0.21 ± 0.11. In the case of RELEDAFREFDTNGDGRISVGELRAALKALLGERLSQREVDEILQDVDLNGDGLVDFEEFVRMMS [R4E] it was 0.217 ± 0.27; in that of RELDDAFREFDTNGDGRISVGELRAALKALLGERLSQREVDEILQDVDLNGDGLVDFEEFVRMMS [R4D], -0.052 ± 0.15.

Take RELSDAFREFDTNGDGRISVGELRAALKALLGERLSQREVDEILQDVDLNGDGLVDFEEFVRMMS [R4S]: the abundance fitness was -0.276 ± 0.083. The result for RELVDAFREFDTNGDGRISVGELRAALKALLGERLSQREVDEILQDVDLNGDGLVDFEEFVRMMS [R4V] reads -0.107 ± 0.049; that for RELLDAFREFDTNGDGRISVGELRAALKALLGERLSQREVDEILQDVDLNGDGLVDFEEFVRMMS [R4L], -0.526 ± 0.069; that for RELGDAFREFDTNGDGRISVGELRAALKALLGERLSQREVDEILQDVDLNGDGLVDFEEFVRMMS [R4G], -0.255 ± 0.086. Take RELHDAFREFDTNGDGRISVGELRAALKALLGERLSQREVDEILQDVDLNGDGLVDFEEFVRMMS [R4H]: the abundance fitness is -0.074 ± 0.1.

With RELNDAFREFDTNGDGRISVGELRAALKALLGERLSQREVDEILQDVDLNGDGLVDFEEFVRMMS [R4N], the abundance fitness is -0.027 ± 0.12.

Regarding RELADAFREFDTNGDGRISVGELRAALKALLGERLSQREVDEILQDVDLNGDGLVDFEEFVRMMS [R4A], the abundance fitness is -0.28 ± 0.099.

With RELRMAFREFDTNGDGRISVGELRAALKALLGERLSQREVDEILQDVDLNGDGLVDFEEFVRMMS [D5M], the abundance fitness was -0.171 ± 0.061.

Take RELREAFREFDTNGDGRISVGELRAALKALLGERLSQREVDEILQDVDLNGDGLVDFEEFVRMMS [D5E]: the abundance fitness is -0.054 ± 0.056. The result for RELRVAFREFDTNGDGRISVGELRAALKALLGERLSQREVDEILQDVDLNGDGLVDFEEFVRMMS [D5V] reads -0.19 ± 0.051; that for RELRHAFREFDTNGDGRISVGELRAALKALLGERLSQREVDEILQDVDLNGDGLVDFEEFVRMMS [D5H], -0.159 ± 0.062; that for RELRWAFREFDTNGDGRISVGELRAALKALLGERLSQREVDEILQDVDLNGDGLVDFEEFVRMMS [D5W], -0.491 ± 0.071.

With RELRAAFREFDTNGDGRISVGELRAALKALLGERLSQREVDEILQDVDLNGDGLVDFEEFVRMMS [D5A], the abundance fitness was -0.226 ± 0.049. The result for RELRIAFREFDTNGDGRISVGELRAALKALLGERLSQREVDEILQDVDLNGDGLVDFEEFVRMMS [D5I] reads -0.219 ± 0.08.

For RELRCAFREFDTNGDGRISVGELRAALKALLGERLSQREVDEILQDVDLNGDGLVDFEEFVRMMS [D5C], the abundance fitness was -0.178 ± 0.069.

Regarding RELRSAFREFDTNGDGRISVGELRAALKALLGERLSQREVDEILQDVDLNGDGLVDFEEFVRMMS [D5S], the abundance fitness was -0.382 ± 0.047. The result for RELRTAFREFDTNGDGRISVGELRAALKALLGERLSQREVDEILQDVDLNGDGLVDFEEFVRMMS [D5T] reads 0.038 ± 0.058; that for RELRNAFREFDTNGDGRISVGELRAALKALLGERLSQREVDEILQDVDLNGDGLVDFEEFVRMMS [D5N], -0.034 ± 0.059; that for RELRPAFREFDTNGDGRISVGELRAALKALLGERLSQREVDEILQDVDLNGDGLVDFEEFVRMMS [D5P], -0.665 ± 0.064. As to RELRYAFREFDTNGDGRISVGELRAALKALLGERLSQREVDEILQDVDLNGDGLVDFEEFVRMMS [D5Y], the abundance fitness is -0.451 ± 0.087.

With RELRQAFREFDTNGDGRISVGELRAALKALLGERLSQREVDEILQDVDLNGDGLVDFEEFVRMMS [D5Q], the abundance fitness is -0.007 ± 0.075. In the case of RELRRAFREFDTNGDGRISVGELRAALKALLGERLSQREVDEILQDVDLNGDGLVDFEEFVRMMS [D5R], the abundance fitness is -0.119 ± 0.038. In the case of RELRFAFREFDTNGDGRISVGELRAALKALLGERLSQREVDEILQDVDLNGDGLVDFEEFVRMMS [D5F] it was -0.066 ± 0.078; in that of RELRGAFREFDTNGDGRISVGELRAALKALLGERLSQREVDEILQDVDLNGDGLVDFEEFVRMMS [D5G], -0.318 ± 0.05.

RELRLAFREFDTNGDGRISVGELRAALKALLGERLSQREVDEILQDVDLNGDGLVDFEEFVRMMS [D5L]: the abundance fitness is -0.32 ± 0.042. In the case of REVRDAFREFDTNGDGRISVGELRAALKALLGERLSQREVDEILQDVDLNGDGLVDFEEFVRMMS [L3V] it was -0.15 ± 0.058. In the case of REWRDAFREFDTNGDGRISVGELRAALKALLGERLSQREVDEILQDVDLNGDGLVDFEEFVRMMS [L3W] it was -0.187 ± 0.1. Turning to REQRDAFREFDTNGDGRISVGELRAALKALLGERLSQREVDEILQDVDLNGDGLVDFEEFVRMMS [L3Q], the abundance fitness turned out to be 0.018 ± 0.095. In the case of RESRDAFREFDTNGDGRISVGELRAALKALLGERLSQREVDEILQDVDLNGDGLVDFEEFVRMMS [L3S] it was -0.473 ± 0.13; in that of RETRDAFREFDTNGDGRISVGELRAALKALLGERLSQREVDEILQDVDLNGDGLVDFEEFVRMMS [L3T], -0.281 ± 0.081.

For the variant REYRDAFREFDTNGDGRISVGELRAALKALLGERLSQREVDEILQDVDLNGDGLVDFEEFVRMMS [L3Y], the abundance fitness is -0.139 ± 0.17.

On to RERRDAFREFDTNGDGRISVGELRAALKALLGERLSQREVDEILQDVDLNGDGLVDFEEFVRMMS [L3R], for which the abundance fitness is -0.729 ± 0.073.

On to REPRDAFREFDTNGDGRISVGELRAALKALLGERLSQREVDEILQDVDLNGDGLVDFEEFVRMMS [L3P], for which the abundance fitness is -0.441 ± 0.11.
